Results on four molecules are retold here after patent publication WO2021065846A1 (dated 2021).

A word on the Kd: it is the concentration at which binding is half-saturated. Low readings indicate tighter binding, high ones weaker binding.

Where a chain is given by its changes, count along the chain named.

The target of test [1] is T1, anti-HIV-1 V3 antibody 1C10 (0.5γ).
T1 construct: Used as whole bivalent IgG; also called anti-V3 antibody 1C10; 1C10-biotin
Briefly: SPR, Biacore T200, biotinylated 1C10 on SA chip, anti-idiotype antibody as analyte.

Test [2] has the same target. The test can be described thus: inhibition ELISA: biotinylated 1C10 on NNT20 V3 peptide. In general terms: An ELISA detects its analyte on a solid surface through an enzyme-linked reagent.
Test [3] has the same target. Briefly: sandwich ELISA: Fab #92 coated as capture, 1C10, biotinylated IgG #87 as detection.

T1 sequence (VH, as listed by the source, chain 1 of 2): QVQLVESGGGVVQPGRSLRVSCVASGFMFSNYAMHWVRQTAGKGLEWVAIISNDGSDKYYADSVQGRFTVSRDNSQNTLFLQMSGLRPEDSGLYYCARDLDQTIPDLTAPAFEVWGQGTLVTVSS
T1 sequence (VL, as listed by the source, chain 2 of 2): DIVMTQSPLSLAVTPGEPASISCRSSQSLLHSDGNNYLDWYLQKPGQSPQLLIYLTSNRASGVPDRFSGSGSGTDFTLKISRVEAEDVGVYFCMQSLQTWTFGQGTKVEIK

B1: anti-1C10 idiotype antibody #87 (IgG) (antibody, V domains shown)
VH: QVQLVETGGGLVRPGNSLKLSCVTSGFTFSTYRMHWLRQPPGKRLEWIAVITVKSDGYGANYAQSLKDRFTISRDDSKSSVFLQMNRLREEDTATYYCSRGPDFYGSTYWYFDVWGAGTT
VL: DIVMTQSPSSLDVSVGEKVSMSCKSSQSLLYRSNQKNYLAWYQQKPGQSPRLLIYWASTRESGVPDRFTGSGSGTDFTLTISSVKAEDLAVYYCQQYYSYSTFGAGTKVELK
notes: Mouse variable regions cloned into human IgG expression vectors (pIgGH, pKVA2); Biotinylated where used as detection antibody; also called clone #87; IgG#87
Turning to B1, in test [1], the Kd was 0.0343 nM.

B2: anti-1C10 idiotype antibody #102 (IgG) (antibody, V domains shown)
VH: EVKLLESGGGLVQPGISLKLSCAASGFDFTRDWMSWVRQAPGKGLEWIGEINPDSSAINYTPSLRDKFIISRDNAKNTLYLQMSKVRSEDTALYYCARRGYYGYYLDYWGQGTTLTVSS
VL: B1 VL with D12A, S20T, L30F, Y31F, R51K, R60G, S101P, A105G, V109L, L111I
notes: Mouse variable regions cloned into human IgG expression vectors (pIgGH, pKVA2)
As to B2, the binding result in test [2] is recorded as “binds”.

B3: Fab of anti-1C10 idiotype antibody #92 (Fab, V domains shown)
VH: QVQLQQSGAELAKPGASVKMSCKASGYTFTNYWMHWVKQRPGQGLEWIGFINPNTDYTEYNQKFTDKATLTADKSSNTAYMQLSSLTSEDSALYYCAREDTWFAYWGQGTLVTVSA
VL: DIQMTQSPASLSASVGETVTITCRASENIYSYLAWYQQKQGKSPQLLVYNAKALAEGVPSRFSGSGSGTQFSLKINSLQPEDFGSYYCQHHYRTPYAFGGGTKLEIK
notes: VH cloned into a Fab heavy chain expression vector, co-expressed with the light chain vector, purified on His60 Ni resin; also called Fab#92; #92Fab
B3: the binding result in test [3] is given as “binds”.

B4: anti-1C10 idiotype antibody #92 (IgG) (antibody, V domains shown)
VH: B3 VH
VL: B3 VL
notes: Mouse variable regions cloned into human IgG expression vectors (pIgGH, pKVA2); also called clone #92; IgG#92
Turning to B4, in test [2], the binding result is on record as “binds”.
